Drawing on PMC11099136, “Structure, mechanism, and evolution of the last step in vitamin C biosynthesis” (Nature Communications, 2024), this text covers Km, kcat and kcat/Km for seven molecules.

Data set [1] addresses T1, vGalDH (synthetic construct, UniProt Z9D058OTD2).
T1 construct: SUMO cleaved for crystals; noncovalent FAD
T1 sequence (Z9D058OTD2 110-619): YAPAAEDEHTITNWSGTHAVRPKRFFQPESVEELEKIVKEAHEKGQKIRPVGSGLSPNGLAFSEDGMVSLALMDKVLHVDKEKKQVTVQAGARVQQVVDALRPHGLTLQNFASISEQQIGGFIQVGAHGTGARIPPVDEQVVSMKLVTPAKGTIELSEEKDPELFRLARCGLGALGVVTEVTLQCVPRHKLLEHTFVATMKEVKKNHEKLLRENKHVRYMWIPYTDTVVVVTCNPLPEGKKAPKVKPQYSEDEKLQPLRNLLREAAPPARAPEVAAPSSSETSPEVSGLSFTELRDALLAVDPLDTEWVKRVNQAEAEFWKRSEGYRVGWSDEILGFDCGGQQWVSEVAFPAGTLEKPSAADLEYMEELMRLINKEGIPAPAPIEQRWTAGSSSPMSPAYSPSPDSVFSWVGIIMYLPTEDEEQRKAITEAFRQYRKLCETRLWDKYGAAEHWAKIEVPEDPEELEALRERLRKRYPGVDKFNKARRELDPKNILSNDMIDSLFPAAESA
As to the kind of experiment: cytochrome c reduction at […] nm, Michaelis-Menten fit. It is filed as biochemical. The note with it: 50 μM equine cytochrome c, 50 mM potassium phosphate pH 8, 25 °C.

Substrate in data set [2]: O=C1O[C@H](CO)[C@@H](O)[C@@H]1O
As to the kind of experiment: oxygen consumption (Oxygraph), Michaelis-Menten fit. It is filed as biochemical, synthetic construct. The note with it: oxygen as co-substrate, 50 mM potassium phosphate pH 8, 25 °C. The text has this: (§1) oxygen consumption (Oxygraph), Michaelis-Menten fit on cGULO

Substrate in data set [3]: O=C1O[C@H]([C@@H](O)CO)[C@@H](O)[C@@H]1O
Described as above. The format is biochemical, synthetic construct. The settings on record: oxygen as co-substrate, 50 mM potassium phosphate pH 8, 25 °C.
Source text: as §1

Substrate in data set [4]: O=C1O[C@H]([C@@H](O)CO)[C@H](O)[C@@H]1O
The data set is described as above. It is filed as biochemical, synthetic construct. The note with it: oxygen as co-substrate, 50 mM potassium phosphate pH 8, 25 °C.
Source text: as §1

Substrate in data set [5]: O=C1O[C@H](CO)[C@@H](O)[C@@H]1O
The description is as above. The format is biochemical, synthetic construct. The settings on record: oxygen as co-substrate, 50 mM potassium phosphate pH 8, 25 °C. The procedure: (§2) oxygen consumption (Oxygraph), Michaelis-Menten fit on tGULO | KM values in the sub-millimolar range were measured for mGULO and tGULO | also L-galactono-1,4-lactone (i.e.: GalDH substrate; Fig. 1A) and D-arabino-1,4-lactone (ALO substrate) are effectively oxidized
The source holds these as a separate data set.

Substrate in data set [6]: O=C1O[C@H]([C@@H](O)CO)[C@@H](O)[C@@H]1O
The data set is described as above. It is filed as biochemical, synthetic construct. The note with it: oxygen as co-substrate, 50 mM potassium phosphate pH 8, 25 °C. As for the experimental part:
as §2
The source holds these as a separate data set.

Substrate in data set [7]: O=C1O[C@H]([C@@H](O)CO)[C@H](O)[C@@H]1O
The description is as above. The format is biochemical, synthetic construct. The settings on record: oxygen as co-substrate, 50 mM potassium phosphate pH 8, 25 °C. As for the experimental part: as §2
This is another data set of the same source.

Substrate in data set [8]: O=C1O[C@H](CO)[C@@H](O)[C@@H]1O
Described as above. It is filed as biochemical, synthetic construct. The settings on record: oxygen as co-substrate, 50 mM potassium phosphate pH 8, 25 °C. The text has this: (§3) oxygen consumption (Oxygraph), Michaelis-Menten fit on mGULO
This is another data set of the same source.

Substrate in data set [9]: O=C1O[C@H]([C@@H](O)CO)[C@@H](O)[C@@H]1O
Described as above. The format is biochemical, synthetic construct. The note with it: oxygen as co-substrate, 50 mM potassium phosphate pH 8, 25 °C.
Source text: as §3
This is another data set of the same source.

Substrate in data set [10]: O=C1O[C@H]([C@@H](O)CO)[C@H](O)[C@@H]1O
Described as above. It is filed as biochemical, synthetic construct. The note with it: oxygen as co-substrate, 50 mM potassium phosphate pH 8, 25 °C.
Source text: as §3
This is another data set of the same source.

Substrate in data set [11]: O=C1O[C@H](CO)[C@@H](O)[C@@H]1O
Described as above. It is filed as biochemical, synthetic construct. The note with it: oxygen as co-substrate, 50 mM potassium phosphate pH 8, 25 °C. The source holds these as a separate data set.

Substrate in data set [12]: O=C1O[C@H]([C@@H](O)CO)[C@@H](O)[C@@H]1O
The description is as above. It is filed as biochemical, synthetic construct. The note with it: oxygen as co-substrate, 50 mM potassium phosphate pH 8, 25 °C. The source holds these as a separate data set.

Substrate in data set [13]: O=C1O[C@H]([C@@H](O)CO)[C@H](O)[C@@H]1O
The description is as above. It is filed as biochemical, synthetic construct. The note with it: oxygen as co-substrate, 50 mM potassium phosphate pH 8, 25 °C. This is another data set of the same source.

Consider `O=C1O[C@H]([C@@H](O)CO)[C@@H](O)[C@@H]1O` [L-galactono-1,4-lactone], for which, in data set [1], the Km was found to be 16.6 ± 2.6 µM.

On to `O=C1O[C@H]([C@@H](O)CO)[C@H](O)[C@@H]1O` [L-gulono-1,4-lactone], for which the Km in data set [1] is 2100 ± 300 µM.

Regarding `O=C1O[C@H](CO)[C@@H](O)[C@@H]1O` [D-arabino-1,4-lactone], the Km in data set [1] came to 1100 ± 100 µM.

B1: cGULO (synthetic construct) (protein)
chain: MATGMKGYKFTNWAKTYSCQPELYFEPTTTEEIRQILELARQHSKRVKVVGCGHSPSDIACTTDYMISMKKFNKVLEVDKEKCQVTVQAGILLKDLNEELPKHGMALSNLGAVSDITVAGVISTGTHGTGVNYGILATHVVELTLMTASGEILKCSREENKDIFLAALCGLGALGIILTVTIQCEPAFKLHQKQFPCTLDEVLDNLDTHLKSSEHFRFMWFPHTDHVVVFHANRTDKPVQSTSSWFWDYLVGYYLLEFLLWISTFFPSLVPWINRFFFWLLYSQPKERVDRSDKVFNFECLFKQYVTEWAIPREKTAAVLLELKDWLESNPDFHAHFPVEVRFVRADDIYLSPCYQRDSCYINIIMYRPYGKDVPREKYWAAYEDIMMKVGGRPHWAKAHKVTAKDFQKMYPKFEKFCSIREKLDPQGMFLNSYLERVFF
notes: His-SUMO fusion from pBAD in E. coli; membrane-associated, purified in reduced Triton X-100; covalent FAD
As for B1, in data set [2], the Km was found to be 48600 ± 24000 µM, the kcat was found to be 0.6 ± 0.1 s⁻¹ and the kcat/Km was determined as 12.3 M⁻¹ s⁻¹. For the same molecule, in [3], the Km came to 11800 ± 1200 µM, the kcat was determined as 3.5 ± 0.3 s⁻¹ and the kcat/Km was 300 M⁻¹ s⁻¹. Also, in [4], the Km was 6100 ± 700 µM, the kcat stood at 3.2 ± 0.1 s⁻¹ and the kcat/Km is 520 M⁻¹ s⁻¹.

B2: tGULO (synthetic construct) (protein)
chain: MVQGHGGYKFQNWAQTYGCSPELYFQPTSVEEIKEILDLARQRSKRVKVVGGGHSPSDIACTDDFMIHMNKMNKILKVDKEKKQVTVEAGILLSDLNEELSKHGLALSNLGAVSDVAAAGVIGTGTHNTGIQHGILATQVVALTLMTASGEILECSESVNAELFQAARLHLGCLGVILTVTFQCVPAFHLQETQFPSTLKEVLDNLDSHLKKSEYFRFLWFPHTENVSVIYQDRTDKPPSSSANWFWDYAIGYYLLEFLLWISTFLPRLVPWINRFFFWLLYSGKVERVNLSYKVFNYECRFKQHVQDWAIPIEKTKEALLELKAWLESNPKVVAHFPVEVRFARGDDILLSPCYQRDSCYMNIIMYRPYGKDVPRQQYWLAYENIMKKVGGRPHWAKAHTCTRKDFEKMYPGFQKFCSIREKLDPTGMFLNTYLEKVFY
notes: as for B1
In the case of B2, the Km in data set [5] is 9400 ± 900 µM; in [6] it was 5400 ± 1200 µM; in data set [7], 800 ± 200 µM. For the same molecule, the kcat was determined as 2.9 ± 0.1 s⁻¹ in [5], 1.3 ± 0.1 s⁻¹ in data set [6] and 7.3 ± 0.5 s⁻¹ in [7].

B3: mGULO (synthetic construct) (protein)
chain: MVHGHKGVKFQNWAKTYGCSPEMYFQPTSVEEIREVLDLARQQNKRVKVVGGGHSPSDIACTDGFMIHMGKMNRILKVDKEKKQVTVEAGILLADLNVELSKHGLALSNLGAVSDVTAAGVIGTGTHNTGIKHGILATQVVALTLLTASGTILECSESSNAELFQAARVHLGCLGVILTVTFQCVPQFHLQETSFPSTLKEVLDNLDSHLKKSEYFRFLWFPHSENVSVIYQDHTNKPPSSSANWFWDYAIGFYLLEFLLWISTFLPCLVPWINRFFFWLLFTGKVENSNLSYKIFNYECRFKQHVQDWAIPIEKTKEALLELKAMLESNPKVVAHYPVEVRFTRGDDILLSPCFQRDSCYMNIIMYRPYGKDVPRLDYWLAYETIMKKVGGRPHWAKAHTCTRKDFEKMYPAFQKFCAIREKLDPTGMFLNAYLEKVFY
notes: His-SUMO fusion from pBAD in E. coli (tag kept in stopped-flow); membrane-associated, purified in reduced Triton X-100; covalent FAD
Take B3: the Km in [8] amounted to 3300 ± 400 µM; in data set [9] it was 1900 ± 200 µM; in data set [10], 800 ± 100 µM. For the same molecule, the turnover number (kcat) in data set [8] worked out at 0.5 ± 0.1 s⁻¹; in data set [9] it was 4.2 ± 0.1 s⁻¹; in [10] it was 6.1 ± 0.1 s⁻¹. Besides, the kcat/Km turned out to be 150 M⁻¹ s⁻¹ in data set [8], 2200 M⁻¹ s⁻¹ in data set [9] and 7600 M⁻¹ s⁻¹ in data set [10].

B4: jGULO (synthetic construct) (protein)
chain: MVQGTEGYKFQNWAQTYSCQPELYFEPTSVEEIRQILELARQRSKRVKVVGCGHSPSDIACTDDYMIRMNKMNKILKVDKEKRQVTVEAGILLSDLNEELAKHGLALSNLGAVSDVTVAGVIGTGTHNTGIQHGILATQVVALTLMTASGEILECSESVNKEIFQAARLHLGALGVILTVTFQCEPAFRLHQQQFPSTLTEVLDNLDTHLKKSEYFRFLWFPHTDHVTVFYADRTDKPVQSTSSWFWDYAIGYYLLEFLLWISTFFPRLVPWINRFFFWLLYSAKVERVNRSDKVFNFECLFKQHVSDWAIPIEKTKAALLQLKEWLENNPDVRAHFPVEVRFVRADDILLSPCYQRDSCYINIIMYRPYGKDVPRERYWAAYEDIMKKVGGRPHWAKAHSCTRKDFEKMYPAFQKFCSIREKLDPSGMFLNTYLEKVFF
notes: as for B1
Consider B4, for which the Km in data set [11] is 10700 ± 2500 µM; in [12], 7100 ± 800 µM; in data set [13] it was 6900 ± 600 µM. Besides, the results for the kcat in [11], in data set [12] and in data set [13] were 2.9 ± 0.3 s⁻¹, 8.0 ± 0.3 s⁻¹ and 3.9 ± 1.3 s⁻¹, respectively.
